Data published in the supplement of paper PMC9732359.
± gives the uncertainty stated by the source.

Assay: protein stability index of a GFP-peptide fusion (yeast GPS) (PSI 1-4); higher = more stable; sorted into four equal gates, so the index is relative within each strain
Details: pdr5∆
In short: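 Sequencing reads from sorted gates were used to score each peptide. The library consisted of tiled 17-residue yeast protein peptides fused downstream of GFP on a Cherry-expressing plasmid, pooled and carried in yeast. Mid-log cultures in leucine-free medium were split into four equal gates by GFP/Cherry ratio, and each gate's plasmids were PCR-amplified and Illumina-sequenced. The protein stability index adds up, over all gates, the read frequency multiplied by the gate number.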
Work on NSTNSNTTKPAFGGLNF [YJL041W/NSP1] yielded a protein stability index of 3.29 ± 0.09.

Same assay, conditions: san1∆
NEEINKKSLEEDDEFED [SEM1] showed a protein stability index of 2.9 ± 0.25.
NEKFEIELLSLDDDSIV [SRB4] gave a protein stability index of 2.72 ± 0.081.
NEQLTLLSKKHGQLKLS [RPN5] gave a protein stability index of 1.83 ± 0.081.
Work on NEWIKAQEDVPYLLPYI [QCR7] yielded a protein stability index of 2.6 ± 0.077.
NEYRLAFYQVTPEEDEE [RPL22A] showed a protein stability index of 2.75 ± 0.073.
Work on NFARQLLFNNDFPLLKV [RRP40] yielded a protein stability index of 2.06 ± 0.08.
Sequence NFGGGNNTTPSSTGNAN [YJL041W/NSP1] has a protein stability index of 1.73 ± 0.079.
NFHNSKKRMNSNQERCH [RRI1] gave a protein stability index of 2.83 ± 0.071.
Sequence NFKDMSHVNKYGLIRGL [PRP8] has a protein stability index of 2.19 ± 0.13.
With NFLQESYEVEHVIQIPL [TAF14] the protein stability index was 2.55 ± 0.067.
NFPDEDDDDSRKSAPVD [SKP1] gave a protein stability index of 3.31 ± 0.04.
For NFTCNRKILNFKKDLVI [SWI1], the protein stability index was 2.46 ± 0.1.
For NFYLKRFISDLLWLVLI [SWI1], the protein stability index was 1.86 ± 0.095.
NGAFQNSSNLSYNNTGI [RRP4] gave a protein stability index of 2.98 ± 0.045.
Sequence NGERKFLKEKDTVAELQ [FAS2] has a protein stability index of 3.11 ± 0.24.
NGNKDSSFNFNKNLPFV [SWI1] showed a protein stability index of 3.28 ± 0.051.
In the case of NHMLIDSLNQLEIRNKI [RGR1], the protein stability index is reported as 2.92 ± 0.079.
For NHNKTKLLKSLKNTKYF [PRP8], the protein stability index was 1.54 ± 0.095.
NHTAHNQTRKAHRNGIK [RPL29] showed a protein stability index of 2.32 ± 0.06.
In the case of NIDYQKGLLIWRLLFID [GRR1], the protein stability index is reported as 1.22 ± 0.2.
For NIGETAGVVQDIGSDPT [RPB9], the protein stability index was 2.72 ± 0.11.
In the case of NILIASLMDTLITPAVR [YCG1], the protein stability index is reported as 1.58 ± 0.13.
For NILLRERDSYKLLASTE [YIL149C/MLP2], the protein stability index was 2.49 ± 0.063.
NILNMSMNNDFQQQQQQ [PGD1] showed a protein stability index of 2.83 ± 0.066.
Work on NINATNTSVLMKLKLMI [YCS4] yielded a protein stability index of 1.48 ± 0.13.
NIQGITKPAIRRLARRG [HHF1] showed a protein stability index of 2.89 ± 0.092.
With NIQHLLYGKRFFPYYVH [PRE7] the protein stability index was 1.36 ± 0.091.
NISGEFFRNKLKYHDFL [RPL16B] showed a protein stability index of 2.22 ± 0.067.
NISIITLELESFLEGSK [RGR1] showed a protein stability index of 2.75 ± 0.059.
Sequence NISSSQQLLPAPQLFPY [DSN1] has a protein stability index of 2.62 ± 0.078.
NIVHNFKERQMMVSYPK [AAR2] showed a protein stability index of 1.9 ± 0.15.
NKDSIEECGRTIHRSFT [CSN12] showed a protein stability index of 3.28 ± 0.043.
NKEGTLEQREQNENLPS [SSN2] showed a protein stability index of 3.09 ± 0.057.
Sequence NKGELETQPGCNEEQTL [RPO31] has a protein stability index of 3.21 ± 0.2.
For NKGLVVSPYDYNHKRVS [DIB1], the protein stability index was 1.61 ± 0.11.
With NKLFTEPIKLEPVKEYT [YMR129W/POM152] the protein stability index was 2.4 ± 0.084.
With NKLLGNVTIAQGGVLPN [HTA1] the protein stability index was 1.72 ± 0.058.
With NKLTGKQIVFEIPSETH [RPS7A] the protein stability index was 2.86 ± 0.068.
NKLTGKQIVFEIPSQTN [RPS7B] showed a protein stability index of 2.88 ± 0.095.
For NKLVMKSKFNKSNRSYS [GAL11], the protein stability index was 3.01 ± 0.064.
For NKNQLLKRNRIRNARSI [POP1], the protein stability index was 2.84 ± 0.059.
In the case of NKPAIKEDSTIQDSNGD [SWI3], the protein stability index is reported as 3.14 ± 0.06.
Sequence NKQSVSNLSPDLKFKRH [DSN1] has a protein stability index of 3.32 ± 0.089.
In the case of NKSFIVDQGQIYRDRST [ITC1], the protein stability index is reported as 3.32 ± 0.064.
Sequence NKTLTFETETEVTFKNA [FAS1] has a protein stability index of 3.28 ± 0.084.
Work on NKVCRIEAASTTQDQCK [RPB8] yielded a protein stability index of 2.63 ± 0.075.
In the case of NKVSYYGNPTSKESWRY [RTT102], the protein stability index is reported as 2.84 ± 0.17.
NLDGTKAVKLRKSYKNQ [ROX3] gave a protein stability index of 3.39 ± 0.067.
With NLKVELKEQSEQLKEQM [SMC4] the protein stability index was 3.29 ± 0.035.
NLLCYYNLRSLNLINAK [RPN3] showed a protein stability index of 1.36 ± 0.12.
NLLIQRLNFNQNSSKIV [SWI3] showed a protein stability index of 3.06 ± 0.038.
Work on NLMGNRNNHNSNTSTSK [SNF12] yielded a protein stability index of 2.92 ± 0.12.
In the case of NLNDKFGIYILTQGING [MED1], the protein stability index is reported as 1.6 ± 0.096.
In the case of NLQAKPLVGKPKTELTK [YAR002W/NUP60], the protein stability index is reported as 2.7 ± 0.088.
NLQGDLQAIQEKLNKTD [ITC1] showed a protein stability index of 3.33 ± 0.17.
Sequence NLQIRQLFNWCLMRSLH [DSN1] has a protein stability index of 1.04 ± 0.17.
For NLSLYEATAASHERFFL [CSN12], the protein stability index was 2.08 ± 0.12.
With NLSSLIVEINNVSNTFN [YJL041W/NSP1] the protein stability index was 2.62 ± 0.04.
For NLTYYNEKLECISLGST [ITC1], the protein stability index was 2.32 ± 0.044.
For NLVSLLIIVTRKNYMHV [YML031W/NDC1], the protein stability index was 1.26 ± 0.11.
For NNDLESVSMLLQYYILE [RRI2], the protein stability index was 3.16 ± 0.034.
Work on NNESSDDMDIDEVNDRS [PCI8] yielded a protein stability index of 3.05 ± 0.061.
In the case of NNGNNSTSIQYHGISKN [POP6], the protein stability index is reported as 2.65 ± 0.044.
Sequence NNIIAEGIEKMGVRTFS [FAS2] has a protein stability index of 2.23 ± 0.12.
Work on NNKILEKCKEINVETVY [BRR2] yielded a protein stability index of 1.78 ± 0.19.
With NNKNNSITTGNDNENIV [MED2] the protein stability index was 2.95 ± 0.044.
Work on NNNNKSINKNNKEMHTD [SSN2] yielded a protein stability index of 2.75 ± 0.073.
NNNNNNNDDNGNNNNNN [MED2] gave a protein stability index of 3.327 ± 0.017.
For NNNNSNNHNMRNNSNNK [SWI1], the protein stability index was 2.762 ± 0.026.
With NNPLLLIVDVKQQGVGL [RPN8] the protein stability index was 1.87 ± 0.15.
NNRQLPYLVANVVEVMD [RPT5] showed a protein stability index of 2.58 ± 0.14.
In the case of NNSEQDQEIVIQQLHSV [ISW2], the protein stability index is reported as 2.2 ± 0.096.
Work on NNSLSYHSGRLLIQGPK [ITC1] yielded a protein stability index of 2.47 ± 0.062.
In the case of NNSNSNNNDNNNSNTVA [SWI1], the protein stability index is reported as 3.04 ± 0.042.
With NNTTPSSTGNANTSNNL [YJL041W/NSP1] the protein stability index was 3.46 ± 0.095.
In the case of NNYKDLLAVAIAASYHY [RPP0], the protein stability index is reported as 1.39 ± 0.15.
With NPNSTAITADLGSSEAE [YGL172W/NUP49] the protein stability index was 2.86 ± 0.22.
NPRKRAIPNSIIKRSNG [YMR153W/NUP53] showed a protein stability index of 2.67 ± 0.1.
NPTKSKEILDNILPFLW [ECM29] gave a protein stability index of 2.8 ± 0.23.
For NPYSSYVSQIRKHKRVS [YAR002W/NUP60], the protein stability index was 2.85 ± 0.049.
In the case of NQGVNELKYQRSLRATA [RPL15A], the protein stability index is reported as 1.61 ± 0.18.
Work on NQINSFWSLHSSTYYNL [NUT1] yielded a protein stability index of 1.72 ± 0.073.
For NQKTSAVAALTEVRAED [RPL8A], the protein stability index was 3.18 ± 0.058.
Work on NQLVEPNRIKLSKEVPF [SRB5] yielded a protein stability index of 2.46 ± 0.042.
Work on NQMGMGTNNGMSMGGGV [YOR098C/NUP1] yielded a protein stability index of 3.33 ± 0.099.
In the case of NQNTLKEISARRYKLLT [POP1], the protein stability index is reported as 2.1 ± 0.067.
With NQQQQQQQQQQQQRRQL [GAL11] the protein stability index was 2.84 ± 0.043.
In the case of NQSSFNFGNNGAGGLNP [YOR098C/NUP1], the protein stability index is reported as 3.2 ± 0.045.
With NQTIKEAKDAIIELENI [YIL149C/MLP2] the protein stability index was 3.06 ± 0.052.
NRTLYELADLPKLKRIG [GRR1] gave a protein stability index of 2.8 ± 0.042.
NRVGLTLDNIDDINKAK [ARP9] gave a protein stability index of 3.22 ± 0.045.
Sequence NSADVDMDAQGRSDSNT [YGL100W/SEH1] has a protein stability index of 3.1 ± 0.12.
NSEISNLPKDKSGIPEF [SSN2] showed a protein stability index of 2.9 ± 0.072.
In the case of NSEYLKRRVTNLEFNYT [SMC2], the protein stability index is reported as 2.5 ± 0.091.
NSIDSTSRIELELKNIG [ECM29] showed a protein stability index of 2.8 ± 0.05.
NSIESKNLSLQTGTKPV [COR1] gave a protein stability index of 2.95 ± 0.045.
Work on NSIWGSSLRKNASGNKR [ITC1] yielded a protein stability index of 2.5 ± 0.11.
With NSLLLDSTPEEVSCKLL [YML103C/NUP188] the protein stability index was 2.97 ± 0.085.
Sequence NSLSSNLSSLIVEINNV [YJL041W/NSP1] has a protein stability index of 2.35 ± 0.051.
Sequence NSQLVGKPHFSLLGGFD [PCI8] has a protein stability index of 2.34 ± 0.18.
NSSNLSYNNTGISDDEN [RRP4] showed a protein stability index of 2.87 ± 0.049.
NSTNSNTTKPAFGGLNF [YJL041W/NSP1] showed a protein stability index of 3.14 ± 0.059.
